11 molecules from PMC7156744, “CdbA is a DNA-binding protein and c-di-GMP receptor important for nucleoid organization and segregation in Myxococcus xanthus” (Nature Communications, 2020) can be followed below.

In one series the target is T1, CdbA (Myxococcus xanthus, UniProt Q1D489).
T1 construct: gene MXAN_4361; full-length CdbA-His6 (67 amino acids), tetramer
Description: ITC (also DRaCALA, SEC, HDX-MS; EMSA shows inhibition of DNA binding). For orientation: A gel shift assay detects complexes by their altered migration in electrophoresis.

The target in series [1] is T2, CdbA-His6 (Myxococcus xanthus DK1622) (UniProt Q1D489).
T2 sequence: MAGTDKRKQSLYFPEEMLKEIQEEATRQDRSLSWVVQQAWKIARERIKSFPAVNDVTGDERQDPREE
Description: EMSA. The settings on record: 10x buffer: 380 mM HEPES, 380 mM NaCl, 50 mM MgCl2, 50% glycerol, 10 mM DTT, 15 ng/ul poly(dI-dC), 50 ng probe, 30 C 30 min, 10% PAGE 1x TBE 4 C, pH not ….

Series [2] concerns the target CdbA-His6 (C-terminally His6-tagged CdbA, MXAN_4361) (Myxococcus xanthus). Description: SEC; analytical SEC, 200 µM CdbA incubated with 200 µM c-di-GMP for 1 minute at 25 °C, Superdex S200 Increase 10/300 GL, SEC buffer, 4 °C; oligomer size from apparent molecular mass. (In gel filtration, larger molecules generally elute earlier.)
Series [3] has the same target. The series can be described thus: crystal structure; crystal form one (dimeric form) of full-length CdbA-His6, 0.1 M MgCl2, 0.1 M HEPES-NaOH pH 7.0, 15% PEG 4000; SAD phasing with a Pt derivative; residues 5-52 traced.
The target is the same in series [4]. The description is as above. This is another data set of the same source.
Series [5] has the same target. The series can be described thus: crystal structure; crystal form two (tetrameric form) of full-length CdbA-His6, 0.1 M sodium malonate, 0.1 M HEPES-NaOH pH 7.0, 30% polyacrylic acid sodium salt 2100; molecular replacement; three copies in the asymmetric unit.
For series [6] the target is unchanged. Description: SEC; analytical SEC, 200 µM CdbA wild-type or variant without c-di-GMP, Superdex S200 Increase 10/300 GL, SEC buffer (20 mM HEPES-Na pH 7.5, 200 mM NaCl, 20 mM MgCl2, 20 mM KCl), 4 °C; oligomer size from apparent molecular mass.
The target of series [7] is CdbA^K8A/S10A-His6 (Myxococcus xanthus). The series is described as above.
The target of series [8] is CdbA^R27A/R30A-His6 (Myxococcus xanthus). The series is described as above.
For series [9], the system named is CdbA-His6 (Myxococcus xanthus DK1622). The series can be described thus: EMSA. The settings on record: 10x buffer: 380 mM HEPES, 380 mM NaCl, 50 mM MgCl2, 50% glycerol, 10 mM DTT, 15 ng/ul poly(dI-dC), 50 ng probe, 30 C 30 min, 10% PAGE 1x TBE 4 C, pH not ….

The Kd is a measure of binding affinity in units of concentration. For orientation: stoichiometry N means the number of molecules, sites or subunits per partner or assembly.

At CdbA, `Nc1nc2c(ncn2[C@@H]2O[C@@H]3CO[P@](=O)(O)O[C@H]4[C@@H](O)[C@H](n5cnc6c(=O)[nH]c(N)nc65)O[C@@H]4CO[P@](=O)(O)O[C@H]3[C@H]2O)c(=O)[nH]1` [c-di-GMP] registered a Kd of about 83 nM. As to “ACTTGGGTCTCCGGGGCGGATTCGGGGTGACGACCTGAACACACCTGGGCCGTTATCCGACAGACTCCCAAGTGGGTCAACGGTTTCCAAGGACTCATTCCGAGGTCGCACGGTCCGTCCCCGTGCTCGTCCAGTTGCACGTAAGCTGTGCAACCATGCGCGAAAAAGGAAACGCCCCGGACTCCACGAGGAAGTCCGGGGCGCTTCGGAAAGAGGGACCGCCTAGAGAAATCTCCAGGCGGGCCCGTGG (double strand) [cdbAB promoter]”, the Kd in series [1] turned out to be 900 nM. This counts as sub-micromolar. Turning to “CdbA-His6 (C-terminally His6-tagged CdbA, MXAN_4361) (natural protein)”, the stoichiometry N in series [2] came to 4; in series [3], 2; in series [4], 4; in series [5], 4; in series [6] it was 4. Consider CdbA^K8A/S10A-His6 (natural protein), for which the stoichiometry N in [7] was 4. For the molecule CdbA^R27A/R30A-His6 (natural protein), in series [8], the stoichiometry N was determined as 4.

In the case of “GACACACCTTCTCCGAGCGGCTTGCGGTGTTCGGGGGACTCGGGCTTGCGCTCGGGTTCGGCGCGGGCCTGCGCGGAGACGCGGAAGCCTTCACTGGGGTTCAGTGGATCTTCCCGGTCGGATCGAAGTGAATTTCTTGCGATCAGACCGACTTGTGAGAATGTACGCGCATCTACAGGAGGTCGCGCACATGGACATGAATCCCCGTCTTACCTCAGTGGTCTTCCGGCTCAACCGCGAGAAGCTCGAC (double strand) [MXAN_4058 promoter, two repeats mutated]”, in series [1], the equilibrium dissociation constant (Kd) came to 2500 nM. In series [1], “GACACACCTTCTCCGAGCGGCTTGCGGTGTTCGGGGGACTCGGGCTTGCGCTCGGGTTCGGCGCGGGCCTGCGCGGAGACGCGGAAGCCTTCACTGGGGTTCAGTGGATCTTCCCGGTCGGATCGAAGTGAATTTCTTGCGATCAGACCGACTTGTGAGAATGTGTGCGCATCTACAGGAGGTCGCGCACATGGACATGAATCCCCGTCTTACCTCAGTGGTCTTCCGGCTCAACCGCGAGAAGCTCGAC (double strand) [MXAN_4058 promoter, one repeat mutated]” displayed a Kd of 1100 nM. “GACACACCTTCTCCGAGCGGCTTGCGGTGTTCGGGGGACTCGGGCTTGCGCTCGGGTTCGGCGCGGGCCTGCGCGGAGACGCGGAAGCCTTCACTGGGGTTCAGTGGATCTTCCCGGTCGGATCGAAGTGAATTTCTTGCGATCAGACCGACTTGTGAGAATGTGTGCGCATCTGTAGGAGGTCGCGCACATGGACATGAATCCCCGTCTTACCTCAGTGGTCTTCCGGCTCAACCGCGAGAAGCTCGAC (double strand) [peak rank #1 fragment (MXAN_4058 promoter), WT]” returned a dissociation constant Kd in series [1] of 400 nM. Against the preceding molecule, the Kd is about 2.8-fold lower. Turning to cdbAB promoter, in series [9], the Kd turned out to be 900 nM. In turn, no-peak control fragment displayed a Kd in [9] of 4000 nM. The same measure, in the same setting: then “peak rank #1 fragment (MXAN_4058 promoter), WT”, with 400 nM.
